The results in this text go back to US8013115B1, “Use of stabilised synthetic compounds in immunoassay” (Bio-Rad Pasteur, priority 1999, dated 2011).

[ ]: non-standard residue; d: D form. Hx = not defined here

Data set [1] is classed as physicochemical. The procedure:
(§1) The stability of the compounds PEP 5, PEP 9 and PEP 10 was evaluated by ELISA assay, with chemiluminescence reading (signal expressed in Relative Luminescence Units or RLU), with the aid of the automated device Access® from the company Beckman, distributed by Bio-Rad (Marnes la Coquette, France), and then compared with that of a prior art noncyclized reference biepitopic compound (TRP 1116 Ac) analysed in the same manner.

Data set [2] can be described thus: Linearity of the dilution curves / dilutability, ELISA signal (RLU) versus dilution. The procedure:
as §1
Standard for acceptance of the dilutions: the ratio experimental signal/theoretical signal at a given dilution should be equal to 1.00±0.2, for the compound to be dilutable. The dilutions giving signals of less than 100 000 RLU units should not be taken into account.
Results expressed in signal units (RLU)
Background: An ELISA detects its analyte on a solid surface through an enzyme-linked reagent.

The target of data set [3] is antibodies of the ELISA assay with chemiluminescence reading on the automated device Access (Beckman). As to the kind of experiment: ELISA immunoassay, chemiluminescence, Access device; compound diluted 1/10 000.
For data set [4] the target is unchanged. As to the kind of experiment: ELISA immunoassay, chemiluminescence, Access device; compound diluted 1/20 000.
Data set [5] shares this target. As to the kind of experiment: ELISA immunoassay, chemiluminescence, Access device; compound diluted 1/40 000.
For data set [6] the target is unchanged. As to the kind of experiment: ELISA immunoassay, chemiluminescence, Access device; compound diluted 1/50 000.
Data set [7] has the same target. As to the kind of experiment: ELISA immunoassay, chemiluminescence, Access device; compound diluted 1/100 000.
The target is the same in data set [8]. As to the kind of experiment: ELISA immunoassay, chemiluminescence, Access device; compound diluted 1/300 000.

Turning to “Ac-GSSNYRAYA-(TEPH)-AKK-Hx-PLELAGLG-(FAEL)-QDLCRQ-NH2 (SEQ ID NO: 6) (Ac-GSSNYRAYATEPHAKK[Hx]PLELAGLGFAELQDLCRQ-NH2; not fully specified; printed as Ac-GSSNYRAYA-(TEPH)-AKK-Hx-PLELAGLG-(FAEL)-QDLCRQ-NH2; reading uncertain; also: TEPH, Hx, FAEL described as non-natural linkers) [TRP 1116 Ac]”, the “Stability ratio signal at DO + 24 H/signal at DO” value in data set [1] worked out at 0.77. Besides, the Experimental signal in data set [2] (dilution 1/10 000) is given as 11 039 697 RLU; in data set [2] (dilution 1/20 000) it was 3 779 387 RLU; in data set [2] (dilution 1/40 000), 1 573 457 RLU; in data set [2] (dilution 1/50 000), 1 125 417 RLU; in data set [2] (dilution 1/100 000), 471 714 RLU; in data set [2] (dilution 1/300 000), 132 054 RLU.

B1: peptide TRP 1116 Ac: Ac-…-(TEPH)-AKK-Hx-PLELAGLG-(FAEL)-QDLCRQ-NH2 (peptide)
peptide: Ac-GSSNYRAYATEPHAKK[Hx]PLELAGLGFAELQDLCRQ-NH2
modifications: reading uncertain; also: printed as Ac-GSSNYRAYA-(TEPH)-AKK-Hx-PLELAGLG-(FAEL)-QDLCRQ-NH2
Take B1: the Experimental signal (RLU) stood at 1.1e+07 RLU in data set [3]; 3.78e+06 RLU in data set [4]; 1.57e+06 RLU in data set [5]; 1.13e+06 RLU in data set [6]; 472000 RLU in data set [7]; 132000 RLU in data set [8].
